Test system: peptide library, one residue held at a place counted from the S/T acceptor
Assay: relative phosphorylation of the sub-library (ratio to the mean residue at this position); higher = residue favoured
Conditions: human
Method in brief: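 Relative sub-library phosphorylation is the ratio of each sub-library's signal to the mean residue at that position. The signal came from phosphorimaging of spots on streptavidin membranes, quantified by densitometry, after purified recombinant kinases reacted with biotinylated degenerate peptide sub-libraries in 384-well plates. Reactions held 50 μM peptide and 50 μM ATP spiked with γ-32P-ATP for 90 min under kinase-specific conditions.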

STK17A, construct: Full length, sequence (Q9UEE5 whole entry, looked up): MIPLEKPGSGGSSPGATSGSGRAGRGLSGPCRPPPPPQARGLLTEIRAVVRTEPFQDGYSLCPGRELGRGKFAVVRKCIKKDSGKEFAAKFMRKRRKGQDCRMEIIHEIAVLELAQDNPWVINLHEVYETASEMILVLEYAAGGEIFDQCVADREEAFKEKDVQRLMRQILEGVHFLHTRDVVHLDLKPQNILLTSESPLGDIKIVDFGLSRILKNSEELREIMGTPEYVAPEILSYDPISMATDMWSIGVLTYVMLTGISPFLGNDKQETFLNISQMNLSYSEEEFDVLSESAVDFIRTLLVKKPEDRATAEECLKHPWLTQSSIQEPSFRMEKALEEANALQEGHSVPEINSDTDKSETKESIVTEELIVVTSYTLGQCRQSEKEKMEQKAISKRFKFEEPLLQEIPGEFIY
WNK3, construct: aa1-434, sequence (Q9BYP7 1-434, looked up): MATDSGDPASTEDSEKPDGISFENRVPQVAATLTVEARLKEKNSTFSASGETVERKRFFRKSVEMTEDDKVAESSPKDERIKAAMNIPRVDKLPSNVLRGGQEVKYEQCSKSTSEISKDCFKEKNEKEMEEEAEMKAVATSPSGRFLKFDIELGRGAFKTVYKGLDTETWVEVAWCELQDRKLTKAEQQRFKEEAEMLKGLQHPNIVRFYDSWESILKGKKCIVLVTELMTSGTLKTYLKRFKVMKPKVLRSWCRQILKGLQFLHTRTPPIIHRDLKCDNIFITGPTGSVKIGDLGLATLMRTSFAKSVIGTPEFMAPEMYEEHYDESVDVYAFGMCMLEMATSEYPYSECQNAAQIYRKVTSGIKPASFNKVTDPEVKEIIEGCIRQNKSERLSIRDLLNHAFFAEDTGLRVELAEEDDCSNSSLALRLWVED
DAPK1, construct: aa1-363, sequence (P53355 1-363, looked up): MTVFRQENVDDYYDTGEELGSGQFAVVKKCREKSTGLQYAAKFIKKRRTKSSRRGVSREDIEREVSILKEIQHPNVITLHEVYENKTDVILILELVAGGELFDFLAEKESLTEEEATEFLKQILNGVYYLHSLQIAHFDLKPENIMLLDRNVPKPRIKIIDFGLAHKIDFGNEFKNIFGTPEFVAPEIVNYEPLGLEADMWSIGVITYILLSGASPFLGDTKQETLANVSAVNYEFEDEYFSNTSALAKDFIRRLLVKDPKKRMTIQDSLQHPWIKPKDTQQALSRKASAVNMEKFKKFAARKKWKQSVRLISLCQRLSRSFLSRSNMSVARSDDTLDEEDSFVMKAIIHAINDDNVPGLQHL

DAPK1, construct: aa1-363 (from UniProt P53355)
relative phosphorylation
Conditions | at +1 | at +2 | at +3 | at +4 | at -1 | at -2 | at -3 | at -4 | at -5
A fixed | 0.752 | 0.793 | 0.813 | 0.817 | 0.743 | 1.27 | 0.626 | 0.975 | 0.91
D fixed | 1.81 | 0.767 | 0.98 | 0.853 | 0.83 | 0.333 | 0.336 | 0.665 | 0.58
E fixed | 1.76 | 0.953 | 0.979 | 0.857 | 0.63 | 0.347 | 0.374 | 0.82 | 0.622
F fixed | 0.867 | 0.998 | 0.999 | 1.13 | 0.771 | 0.4 | 0.45 | 0.844 | 0.773
G fixed | 1.06 | 0.651 | 0.978 | 0.935 | 0.847 | 0.662 | 0.62 | 0.937 | 1.03
H fixed | 0.714 | 0.936 | 1 | 1.45 | 1.24 | 0.987 | 0.754 | 1 | 1.05
I fixed | 0.877 | 1.05 | 1.95 | 0.913 | 0.701 | 0.308 | 0.418 | 0.871 | 0.955
K fixed | 0.476 | 0.717 | 0.665 | 0.72 | 1.35 | 1.38 | 2.1 | 1.63 | 1.67
L fixed | 0.792 | 1.92 | 1.39 | 0.777 | 1.18 | 0.354 | 0.385 | 0.796 | 1.02
M fixed | 1.12 | 1.71 | 1.04 | 1.01 | 1.14 | 0.387 | 0.421 | 0.959 | 0.954
N fixed | 1.47 | 0.871 | 0.818 | 0.985 | 1.4 | 0.672 | 0.483 | 0.93 | 0.842
P fixed | 0.353 | 0.724 | 0.693 | 0.994 | 1.04 | 0.338 | 0.558 | 0.677 | 0.756
Q fixed | 2.1 | 1.03 | 0.767 | 0.816 | 1.06 | 0.742 | 0.632 | 1.03 | 0.828
R fixed | 0.659 | 1.06 | 0.832 | 0.912 | 1.64 | 7.29 | 7.46 | 2.31 | 2.36
V fixed | 0.821 | 0.912 | 1.3 | 0.792 | 0.691 | 0.345 | 0.297 | 0.77 | 0.722
W fixed | 0.698 | 0.827 | 0.856 | 1.7 | 0.695 | 0.732 | 0.592 | 0.856 | 0.73
Y fixed | 0.68 | 1.08 | 0.936 | 1.33 | 1.05 | 0.46 | 0.502 | 0.928 | 1.2
pThr fixed | 3.07 | 1.42 | 1.26 | 1.87 | 0.889 | 0.618 | 0.741 | 0.996 | 1.17
pTyr fixed | 1.87 | 1.41 | 2.43 | 1.56 | 1.33 | 0.71 | 0.721 | 0.94 | 1.15

STK17A, construct: Full length (from UniProt Q9UEE5)
relative phosphorylation
Conditions | at +1 | at +2 | at +3 | at +4 | at -1 | at -2 | at -3 | at -4 | at -5
A fixed | 0.4 | 0.562 | 0.679 | 0.808 | 0.636 | 1.04 | 0.701 | 0.927 | 0.979
D fixed | 0.954 | 0.564 | 0.686 | 0.86 | 0.85 | 0.657 | 0.799 | 1.06 | 0.922
E fixed | 0.984 | 0.612 | 1.18 | 0.917 | 0.967 | 0.597 | 0.681 | 1.09 | 0.916
F fixed | 4.75 | 0.832 | 1.05 | 0.896 | 1.11 | 0.943 | 0.802 | 0.772 | 0.876
G fixed | 0.63 | 0.444 | 0.889 | 0.868 | 0.801 | 1.2 | 0.868 | 1.23 | 1.11
H fixed | 0.502 | 1.83 | 1.12 | 1.15 | 1.16 | 1.25 | 1.02 | 1.03 | 1.06
I fixed | 0.75 | 0.709 | 1.49 | 0.742 | 0.621 | 0.491 | 0.65 | 0.586 | 0.721
K fixed | 0.498 | 1.7 | 1.08 | 1.49 | 1.23 | 1.32 | 1.28 | 1.43 | 1.63
L fixed | 0.678 | 0.732 | 0.989 | 0.713 | 1.24 | 0.648 | 0.783 | 0.62 | 0.872
M fixed | 1.41 | 0.787 | 0.984 | 0.669 | 1.19 | 0.892 | 1.13 | 0.798 | 0.837
N fixed | 0.558 | 0.93 | 0.733 | 0.988 | 1.06 | 1.05 | 0.902 | 1 | 1.06
P fixed | 0.251 | 0.332 | 0.539 | 0.952 | 0.589 | 0.673 | 0.888 | 0.979 | 0.993
Q fixed | 1.66 | 1.09 | 0.815 | 1 | 0.931 | 0.934 | 0.989 | 0.782 | 0.704
R fixed | 0.494 | 2.6 | 1.17 | 1.7 | 1.18 | 1.8 | 2.58 | 1.32 | 1.38
V fixed | 0.53 | 0.708 | 1.04 | 0.693 | 0.721 | 0.638 | 0.56 | 0.73 | 0.829
W fixed | 0.974 | 1.16 | 1.2 | 1.33 | 1.07 | 1.83 | 1.43 | 1.81 | 1.16
Y fixed | 0.972 | 1.41 | 1.37 | 1.23 | 1.64 | 1.04 | 0.945 | 0.842 | 0.947
pThr fixed | 6.24 | 3.31 | 1.2 | 1.45 | 0.813 | 0.788 | 0.9 | 0.977 | 0.971
pTyr fixed | 1.4 | 1.6 | 3.08 | 1.39 | 1.61 | 0.941 | 1.06 | 1.17 | 0.918

WNK3, construct: aa1-434 (from UniProt Q9BYP7)
relative phosphorylation
Conditions | at +1 | at +2 | at +3 | at +4 | at -1 | at -2 | at -3 | at -4 | at -5
A fixed | 0.622 | 0.792 | 0.655 | 0.69 | 0.647 | 1.05 | 0.84 | 0.962 | 0.856
D fixed | 0.416 | 0.7 | 0.675 | 0.609 | 0.462 | 0.409 | 0.519 | 0.598 | 0.749
E fixed | 0.359 | 0.496 | 0.64 | 0.647 | 0.6 | 0.361 | 0.552 | 0.766 | 0.91
F fixed | 1.36 | 1.09 | 1.43 | 1.25 | 0.983 | 0.865 | 0.748 | 0.843 | 1.14
G fixed | 0.784 | 0.939 | 0.674 | 0.771 | 0.605 | 1.41 | 0.728 | 0.853 | 0.972
H fixed | 1.02 | 0.981 | 1.31 | 1.01 | 1.11 | 1.56 | 1.44 | 1.3 | 1.24
I fixed | 1.19 | 1.59 | 1.09 | 1.38 | 0.924 | 0.746 | 0.95 | 0.836 | 0.879
K fixed | 0.825 | 0.772 | 1 | 1 | 1.51 | 1.19 | 1.7 | 1.37 | 1.39
L fixed | 1.61 | 1.5 | 1.32 | 1.29 | 1.26 | 0.8 | 0.862 | 0.858 | 0.753
M fixed | 1.84 | 1.54 | 1.29 | 1.41 | 1.49 | 0.852 | 1.16 | 0.894 | 0.861
N fixed | 0.937 | 0.654 | 0.747 | 0.682 | 0.799 | 0.815 | 0.795 | 0.973 | 0.968
P fixed | 0.278 | 0.356 | 0.441 | 0.626 | 0.428 | 1.24 | 0.794 | 0.8 | 0.702
Q fixed | 1.16 | 0.608 | 0.648 | 0.677 | 1.22 | 0.768 | 1.11 | 0.901 | 0.986
R fixed | 1.16 | 1.64 | 0.994 | 0.959 | 1.53 | 1.85 | 1.87 | 1.77 | 1.69
V fixed | 1.03 | 1.28 | 0.994 | 1.35 | 1.09 | 1.07 | 0.871 | 0.957 | 0.818
W fixed | 1.06 | 0.946 | 1.59 | 1.4 | 1.15 | 1.01 | 1.01 | 1.14 | 0.974
Y fixed | 1.33 | 1.12 | 1.51 | 1.24 | 1.2 | 0.997 | 1.06 | 1.19 | 1.12
pThr fixed | 0.485 | 0.521 | 0.513 | 0.543 | 0.566 | 0.779 | 0.812 | 0.96 | 0.798
pTyr fixed | 0.566 | 0.549 | 0.663 | 0.56 | 0.893 | 0.555 | 0.741 | 0.842 | 0.859
